This is an account of results in the Immune Epitope Database (IEDB).

Assay [1] has as its target HLA-A*02:01. Kind of assay: IEDB peptide-MHC binding, cellular MHC/competitive/fluorescence; ≥ and ≤ were set here for values at or beyond the usual limits of such assays.
For assay [2], the target named is HLA-A*02:06. Described as above.
A further assay addresses HLA-A*02:02. Kind of assay: IEDB peptide-MHC binding, purified MHC/competitive/radioactivity; ≥ and ≤ were set here for values at or beyond the usual limits of such assays.
A further assay addresses HLA-A*02:03. The description is as above.
The target in assay [3] is HLA-A*68:02. Described as above.
The target of assay [4] is HLA-A*02:01. The assay is described as above.
The target of assay [5] is HLA-A*68:02. Kind of assay: IEDB peptide-MHC binding, cellular MHC/competitive/fluorescence; ≥ and ≤ were set here for values at or beyond the usual limits of such assays. As to conditions: source organism: Vaccinia virus WR.
Assay [6] addresses HLA-A*02:06. Put plainly: IEDB peptide-MHC binding, purified MHC/competitive/radioactivity; ≥ and ≤ were set here for values at or beyond the usual limits of such assays. As to conditions: source organism: Vaccinia virus WR.
[7] abbreviates: source organism: Vaccinia virus WR.
Where [8] appears, read: source organism: Influenza A virus.
The mark [9] stands for this setting: source organism: Mammarenavirus brazilense.

On to ETLFGSYIT, for which the IC50 amounted to 15600 nM with HLA-A*02:01 [1] (setting [7]); 15400 nM in the assay with HLA-A*02:06 [2] (setting [7]); 2490 nM in the assay with HLA-A*02:02 (setting [7]); 2440 nM in the assay with HLA-A*02:03 (setting [7]); 465 nM with HLA-A*68:02 [3] (setting [7]).

With LLNETAKVI, the IC50 with HLA-A*02:06 [2] (setting [7]) worked out at 15400 nM; with HLA-A*02:01 [4] (setting [7]) it was 406 nM; with HLA-A*02:02 (setting [7]), 319 nM; in the assay with HLA-A*02:03 (setting [7]) it was 71 nM; with HLA-A*68:02 [3] (setting [7]) it was 881 nM.

On to CLINDPWVL, for which the IC50 with HLA-A*02:06 [2] (setting [8]) came to 6160 nM; in the assay with HLA-A*02:01 [4] (setting [8]), 127 nM; with HLA-A*02:02 (setting [8]) it was 310 nM; in the assay with HLA-A*02:03 (setting [8]) it was 255 nM; with HLA-A*68:02 [3] (setting [8]), 4550 nM.

Consider LRYFIMAYV, for which the IC50 in the assay with HLA-A*02:01 [1] (setting [9]) turned out to be 12700 nM; with HLA-A*02:06 [2] (setting [9]) it was 20100 nM; with HLA-A*02:02 (setting [9]) it was 213 nM; in the assay with HLA-A*02:03 (setting [9]), 396 nM; in the assay with HLA-A*68:02 [3] (setting [9]) it was 18 nM.

Regarding LAEHISDSI, the IC50 with HLA-A*02:01 [1] (setting [7]) was 6050 nM; with HLA-A*02:06 [2] (setting [7]), 19300 nM; with HLA-A*02:02 (setting [7]) it was 45 nM; with HLA-A*02:03 (setting [7]), 731 nM; in the assay with HLA-A*68:02 [3] (setting [7]), 428 nM.

Regarding ELLEMKYAL, the IC50 worked out at 6020 nM in the assay with HLA-A*02:06 [2] (setting [7]); 281 nM with HLA-A*02:01 [4] (setting [7]); 952 nM in the assay with HLA-A*02:02 (setting [7]); 863 nM in the assay with HLA-A*02:03 (setting [7]); 1520 nM in the assay with HLA-A*68:02 [3] (setting [7]).

As to FIQWTGGNI, the IC50 with HLA-A*02:06 [2] (setting [7]) turned out to be 5910 nM; in the assay with HLA-A*02:01 [4] (setting [7]), 525 nM; with HLA-A*02:02 (setting [7]), 683 nM; with HLA-A*02:03 (setting [7]) it was 55 nM; in the assay with HLA-A*68:02 [3] (setting [7]), 442 nM.

On to MLKLFTHDIM, for which the IC50 with HLA-A*02:06 [2] (setting [7]) turned out to be 20300 nM; in the assay with HLA-A*02:01 [4] (setting [7]), 1380 nM; in the assay with HLA-A*02:02 (setting [7]), 85 nM; with HLA-A*02:03 (setting [7]), 93 nM; with HLA-A*68:02 [3] (setting [7]), 2000 nM.

On to LIAGIILLI, for which the IC50 with HLA-A*02:06 [2] (setting [7]) worked out at 8220 nM; in the assay with HLA-A*02:01 [4] (setting [7]), 109 nM; with HLA-A*02:02 (setting [7]) it was 0.17 nM; in the assay with HLA-A*02:03 (setting [7]) it was 39 nM; with HLA-A*68:02 [3] (setting [7]), 20 nM.

Consider DTGKKELAL, for which the IC50 in the assay with HLA-A*02:06 [2] (setting [7]) was 14200 nM; in the assay with HLA-A*02:01 [4] (setting [7]), 3390 nM; with HLA-A*02:02 (setting [7]), 116 nM; with HLA-A*02:03 (setting [7]), 156 nM; with HLA-A*68:02 [3] (setting [7]), 3410 nM.

In the case of QLVWMACHSAA, the IC50 was 11400 nM in the assay with HLA-A*02:01 [1] (setting [8]) and not below 70000 nM with HLA-A*02:06 [2] (setting [8]).

On to DLNAVTTNNL, for which the IC50 in the assay with HLA-A*02:06 [2] (setting [7]) amounted to 7520 nM; with HLA-A*02:01 [4] (setting [7]), 1610 nM; with HLA-A*02:02 (setting [7]) it was 1830 nM; in the assay with HLA-A*02:03 (setting [7]), 1630 nM; with HLA-A*68:02 [3] (setting [7]) it was 3370 nM.

Consider YVEHDPRLV, for which the IC50 with HLA-A*02:06 [2] (setting [7]) amounted to 22600 nM; with HLA-A*02:01 [4] (setting [7]) it was 4740 nM; with HLA-A*02:02 (setting [7]), 1180 nM; in the assay with HLA-A*02:03 (setting [7]) it was 711 nM; in the assay with HLA-A*68:02 [3] (setting [7]) it was 1930 nM.

Turning to MAEFEDQLV, the IC50 with HLA-A*02:06 [2] (setting [7]) was found to be 5510 nM; with HLA-A*02:01 [4] (setting [7]), 2150 nM; with HLA-A*02:02 (setting [7]), 165 nM; in the assay with HLA-A*02:03 (setting [7]), 641 nM; with HLA-A*68:02 [3] (setting [7]), 674 nM.

Consider SLCPTKKLV, for which the IC50 with HLA-A*02:06 [2] (setting [7]) came out at 11900 nM; with HLA-A*02:01 [4] (setting [7]) it was 2660 nM; with HLA-A*02:02 (setting [7]), 3160 nM; with HLA-A*02:03 (setting [7]), 2660 nM; with HLA-A*68:02 [3] (setting [7]), 1040 nM.

In the case of NTNQGNILM, the IC50 is 5940 nM in the assay with HLA-A*02:06 [2] (setting [7]); 4580 nM with HLA-A*02:01 [4] (setting [7]); 1700 nM with HLA-A*02:02 (setting [7]); 1150 nM with HLA-A*02:03 (setting [7]); 664 nM in the assay with HLA-A*68:02 [3] (setting [7]).

As to DIMTSTRTI, the IC50 with HLA-A*02:06 [2] (setting [7]) was determined as 21800 nM; in the assay with HLA-A*02:01 [4] (setting [7]) it was 3460 nM; in the assay with HLA-A*02:02 (setting [7]), 3450 nM; with HLA-A*02:03 (setting [7]) it was 79 nM; with HLA-A*68:02 [3] (setting [7]), 78 nM.

QLVFNSISA: the half-inhibitory concentration (IC50) is 9420 nM with HLA-A*02:01 [1] (setting [7]); 8220 nM in the assay with HLA-A*68:02 [5]; 4800 nM with HLA-A*02:02 (setting [7]); 1560 nM with HLA-A*02:03 (setting [7]); 3780 nM with HLA-A*02:06 [6].

On to YIEDELRRA, for which the IC50 in the assay with HLA-A*02:01 [1] (setting [7]) was 5410 nM; with HLA-A*68:02 [5], not below 70000 nM; with HLA-A*02:02 (setting [7]) it was 1760 nM; with HLA-A*02:03 (setting [7]), 259 nM; with HLA-A*02:06 [6], 1230 nM.

On to MIGNYFSGVL, for which the IC50 amounted to 5760 nM with HLA-A*02:01 [1] (setting [7]); 5620 nM with HLA-A*68:02 [5]; 712 nM with HLA-A*02:02 (setting [7]); 761 nM with HLA-A*02:03 (setting [7]); 1310 nM with HLA-A*02:06 [6].

Take ELSRLRYNL: the IC50 in the assay with HLA-A*02:06 [2] (setting [7]) was found to be 18600 nM; with HLA-A*02:01 [4] (setting [7]), 726 nM; with HLA-A*02:02 (setting [7]), 0.93 nM; with HLA-A*02:03 (setting [7]), 254 nM; with HLA-A*68:02 [3] (setting [7]) it was 1 nM.

Regarding TLFYCDERDA, the IC50 with HLA-A*02:06 [2] (setting [7]) came out at 19500 nM; in the assay with HLA-A*02:01 [4] (setting [7]), 238 nM; in the assay with HLA-A*02:02 (setting [7]), 271 nM; with HLA-A*02:03 (setting [7]) it was 2140 nM; with HLA-A*68:02 [3] (setting [7]) it was 4920 nM.

On to NITPDDGLGL, for which the IC50 in the assay with HLA-A*02:01 [1] (setting [7]) came out at 6530 nM; in the assay with HLA-A*68:02 [5], 12600 nM; with HLA-A*02:02 (setting [7]) it was 1910 nM; in the assay with HLA-A*02:03 (setting [7]), 1290 nM; with HLA-A*02:06 [6], 3450 nM.
